Data as given in the supplement of paper PMC9233669.
Variants at the floor of the assay were thinned out.

What was measured:
[1] = system: biotinyl-Trp-oxazolone; assay: self-aminoacylation, catalytic enhancement (BWO) (fold over background); higher = more active; k-Seq, kA / k0A0; sequences stand for … in GGGAAUGGAUCCACAUCUACGAAUUC…UUCACUGCAGACUUGACGAAGCUG
Outline: (§1)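 The uncatalyzed rate is the low-activity peak of a bimodal Gaussian fit, and catalytic enhancement is median kA divided by it. The kA values came from pseudo-first-order fits, with 1000 bootstraps, of per-sequence fraction reacted measured by streptavidin capture, triplicate qPCR and Illumina sequencing. Mutagenized RNA pools with a 21-nt variable region (0.43 μM) were reacted with each biotinyl-aminoacyl-oxazolone at 2–1250 μM in 50 μL HEPES/NaCl/KCl/MgCl2/CaCl2 buffer with 5% acetonitrile, pH 6.9–7.0, for 90 minutes at room temperature.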

[2] = system: biotinyl-Met-oxazolone; assay: self-aminoacylation, catalytic enhancement (BMO) (fold over background); higher = more active; k-Seq, kA / k0A0; sequences stand for … in GGGAAUGGAUCCACAUCUACGAAUUC…UUCACUGCAGACUUGACGAAGCUG
Outline: as §1

[3] = system: biotinyl-Ile-oxazolone; assay: self-aminoacylation, catalytic enhancement (BIO) (fold over background); higher = more active; k-Seq, kA / k0A0; sequences stand for … in GGGAAUGGAUCCACAUCUACGAAUUC…UUCACUGCAGACUUGACGAAGCUG
Outline: as §1

[4] = system: biotinyl-Phe-oxazolone; assay: self-aminoacylation, catalytic enhancement (BFO) (fold over background); higher = more active; k-Seq, kA / k0A0; sequences stand for … in GGGAAUGGAUCCACAUCUACGAAUUC…UUCACUGCAGACUUGACGAAGCUG
Outline: as §1

[5] = system: biotinyl-Val-oxazolone; assay: self-aminoacylation, catalytic enhancement (BVO) (fold over background); higher = more active; k-Seq, kA / k0A0; sequences stand for … in GGGAAUGGAUCCACAUCUACGAAUUC…UUCACUGCAGACUUGACGAAGCUG
Outline: as §1

[6] = system: biotinyl-Leu-oxazolone; assay: self-aminoacylation, catalytic enhancement (BLO) (fold over background); higher = more active; k-Seq, kA / k0A0; sequences stand for … in GGGAAUGGAUCCACAUCUACGAAUUC…UUCACUGCAGACUUGACGAAGCUG
Outline: as §1

Row | Sequence | self-aminoacylation [1] | self-aminoacylation [2] | self-aminoacylation [3] | self-aminoacylation [4] | self-aminoacylation [5] | self-aminoacylation [6]
1 | AUUUCACUGGUCAUCGAGUGA [Fam2.1 aminoacylation ribozyme variant] | 6.42 | 4.7 | 2.99 | 19.9 | 2.85 | 4.92
2 | AUUCACCUAGGCCAUCGGGAG [Fam2.2 aminoacylation ribozyme variant] | 1.05 | 1.69 | 1.1 | 0.861 | 1.39 | 0.965
3 | AUUCACCGAAGUCAUCGGGUG [Fam2.2 aminoacylation ribozyme variant] | 15.1 | 17.6 | 9.89 | 152 | 9.73 | 23.7
4 | CUACUUCAAACAAUGGGGCUG [Fam1A.1 aminoacylation ribozyme variant] | 0.497 | 0.841 | 1.12 | 0.625 | 1.1 | 0.707
5 | AAGGUUGCUAAUAGUCACAAG [Fam3.1 aminoacylation ribozyme variant] | 1.72 | 1.72 | 1.71 | 4.71 | 1.32 | 1.57
6 | AAGUUUGCUAAUCGUCGCGAG [Fam3.1 aminoacylation ribozyme variant] | 1.49 | 1.27 | 1.04 | 1.8 | 1.01 | 1.36
7 | CCAUACUUCAAGCUAUCGGUC [Fam1B.1 aminoacylation ribozyme variant] | 0.697 | 0.801 | 1.05 | 0.984 | 1.09 | 0.952
8 | CUACUUCAAGCAAUCGGUCAG [Fam1A.1 aminoacylation ribozyme variant] | 1.3 | 1.09 | 0.86 | 2.28 | 0.894 | 0.797
9 | CUACUUCAAAUAAUUGGUCUG [Fam1A.1 aminoacylation ribozyme variant] | 0.637 | 0.953 | 0.844 | 1.19 | 0.802 | 0.869
10 | AUUACCCUGGUCAUCGCGUUA [Fam2.1 aminoacylation ribozyme variant] | 4.12 | 2.71 | 2.27 | 12.7 | 2.32 | 2.73
11 | AUGCACCUAGGUCAUCGGGUU [Fam2.2 aminoacylation ribozyme variant] | 4.05 | 4.43 | 3.66 | 5.22 | 3.24 | 4.54
12 | AAUCACCUAGGUCAUCCGGUG [Fam2.2 aminoacylation ribozyme variant] | 6.07 | 5.22 | 4.59 | 50 | 4.15 | 6.61
13 | CUACCUCAAACAAUCGGUCUU [Fam1A.1 aminoacylation ribozyme variant] | 1.65 | 0.623 | 0.996 | 1.34 | 0.865 | 0.784
14 | AGGUUUGCUAAUAGUCGCAAU [Fam3.1 aminoacylation ribozyme variant] | 2.08 | 1.63 | 2.08 | 2.94 | 1.85 | 1.86
15 | CUACACCUCAAGCAAUCGGUC [Fam1B.1 aminoacylation ribozyme variant] | 1.41 | 0.869 | 1.01 | 2.14 | 0.976 | 0.8
16 | AAGUUUGCUAAUAGUGGCAAG [Fam3.1 aminoacylation ribozyme variant] | 0.773 | 0.734 | 0.737 | 0.894 | 0.739 | 0.692
17 | CAGUUUGAUAAUAGUCGCAAG [Fam3.1 aminoacylation ribozyme variant] | 1.26 | 1.32 | 1.4 | 1.89 | 1.54 | 1.34
18 | AUUUCCCUGGUCAUAGAGUGA [Fam2.1 aminoacylation ribozyme variant] | 12.2 | 9.7 | 4.67 | 61.5 | 4.88 | 9.78
19 | AUUCACCUAGGUCAACGGGUU [Fam2.2 aminoacylation ribozyme variant] | 0.946 | 1.33 | 1.22 | 0.45 | 1.16 | 1.26
20 | AAGUUUGCAAAUCGUCGCAAG [Fam3.1 aminoacylation ribozyme variant] | 1.21 | 0.985 | 1.09 | 0.933 | 0.93 | 1.18
21 | CCUAACUUCAAGCAAUCGGUC [Fam1B.1 aminoacylation ribozyme variant] | 19.9 | 1.02 | 1.18 | 46.5 | 1.01 | 1.54
22 | GUUCACCUAGGUCAUCGAGUG [Fam2.2 aminoacylation ribozyme variant] | 6.52 | 11.4 | 8.09 | 27.6 | 6.89 | 15.7
23 | ACGUUUGCUAAUACUCGCAAG [Fam3.1 aminoacylation ribozyme variant] | 0.897 | 0.968 | 1.12 | 1.88 | 0.9 | 0.909
24 | CCACACUUCAAGCAAUACGUC [Fam1B.1 aminoacylation ribozyme variant] | 0.556 | 0.457 | 0.705 | 1.36 | 0.925 | 0.563
25 | CCUCACUUCAAGGAAUCGGUC [Fam1B.1 aminoacylation ribozyme variant] | 4.27 | 0.946 | 0.76 | 6.28 | 0.869 | 0.936
26 | CAUACCCUGGUCAUCGAGUGA [Fam2.1 aminoacylation ribozyme variant] | 11.7 | 11.3 | 5.75 | 17.6 | 6.04 | 11.8
